Test results: patent publication US20220054419A1

Target: hemagglutinin (HA) of A/California/4/09 (H1N1) on pseudotyped lentivirus (Influenza virus A/California/04/2009 (H1N1)) (UniProt P26140)
Assay: cell-based or functional assay

**Q.** With monoclonal antibody 441D6 as the substance, how does the Neutralization IC50, lentivirus pseudotype neutralization assay read?
**A.** 0.16 µg/mL

**Q.** How did the Neutralization IC50, lentivirus pseudotype neutralization assay turn out when “monoclonal antibody CH65 (anti-receptor binding site of HA)” was run?
**A.** 6.25 µg/mL

**Q.** “monoclonal antibody FI6v3 (anti-HA stem region)” was tested. Which Neutralization IC50, lentivirus pseudotype neutralization assay did it give?
**A.** 0.13 µg/mL
